Results: US5891679A, “TNF-alpha muteins and a process for preparing them” (priority 1993, dated 1999)
Entries after “also recorded” stand apart in the source; their conditions may differ. Bridges are numbered along the chain shown (N, C = ends). The star is where a group is joined. Biotin = O=C1N[C@H]2[C@H](CS[C@H]2CCCCC(=O)*)N1

Assays:
[1] = system: Trypanosoma brucei brucei; experiment: In vitro trypanocidal assay, T. brucei brucei; assay type: cell-based; conditions: for effect on trypanocidal activity of TNF-α / tip peptide: preincubation or cotreatment with the substance; for % inhibition of trypanocidal activity: lectin 10 μg/ml; for Δ: % inhibition of trypanocidal activity by the addition of the p55 hTNFα receptor protein: p55 5 μg/ml
Experimental: The Trypanosoma brucei brucei AnTat 1.1 (EATRO 1125) pleomorphic bloodstream form was kindly provided to us by Dr. N. Van Meirvenne of the Institute for Tropical Medecine, Antwerp, Belgium, and the Trypanosoma brucei rhodesiense Trp 11 pleomorphic bloodstream form was kindly provided to us by Dr. E. Bajyana Songa (Dept. Molecular Biology, Free University of Brussels, Belgium)
After 5 h of incubation, the number of live (=moving) parasites was assessed (counting chamber) and compared the control wells in which only incubation medium was added to the trypanosomes. […] All treatments were done in quadruplicate and all reported in vitro trypanolysis experiments were repeated at least 3 times.

L929 cells = experiment: L929 cell killing (cytotoxic/cytolytic/tumoricidal) assay; assay type: cell-based, mouse; conditions: for effect on mTNF-α tumoricidal (cytolytic) activity: preincubation of mTNF-α with the substance; for Δ: % inhibition of tumoricidal activity by the addition of the p55 hTNFα receptor protein: p55 5 μg/ml
Experimental: L929 fibrosarcoma cells were obtained from the Rega Institute, Leuven, Belgium.
After 18 h of culture at 37° C., viability of the cell cultures was assessed by dye uptake analysis. […] The plates were read spectrophotometrically at 577 nm with a Titertek multiscan MCC340 ELISA Reader (Flow Laboratories, McLean, Va.).

[2] = system: human interleukin-6 (IL6); experiment: IL6 production by hMVECb cells; assay type: cell-based; conditions: for IL6 concentration: 24 hours
Experimental: Subsequently, the IL6 concentration in the supernatant of the cells was assessed using a commercially available hIL6 ELISA kit (Medgenix, Belgium).

[3] = system: human interleukin 8 (IL8); experiment: IL8 production by hMVECb cells; assay type: cell-based; conditions: for IL8 induction compared with wild type: human endothelial brain cells
[4] = In vivo half life of wild type and tip-deleted TNF-α (serum concentration)
Experimental: An ELISA assay to measure the protein concentration of the wild type and tip-deleted or tip-mutated mouse TNF-α protein was developed. […] Subsequently, the plates were washed once with washing buffer (PBS, 0.05% Tween-20) and the remaining binding sites were blocked for at least one hour at 37° C. with 300 μl per well of PBS buffer supplemented with 1% BSA and 0.1% NaN3. Dilutions of sample or standard mTNF-α (0.01 to 10 ng/ml mTNF-α), made in 100 μl of PBS supplemented with 1% BSA, 1% rabbit serum, and 0.1% mertiolate are then added to each well and incubated for 2 hours at 37° C. […] Subsequently, the plates are washed four times with washing buffer wherafter 100 μl of straptavidin-horseradish peroxidase (Jackson Immunoresearch Labs), which has been diluted in sample diluent to a concentration of 100 ng/ml is added and incubated for 30 minutes at 37° C. […] The reaction is stopped by adding 100 μl per well of 2N H2SO4 wherafter the optical density is read at dual wavelength (450/595 nm).
Female 8 weeks old C57bL/6 mice (6 mice/group--Charles Rivers Deutshland) were injected intraperitoneally with 1 μg/mouse of either wild type mouse TNF-α or tip deleted TNF-α. Subsequently, the mice were bled 0.5, 5, 10, 15, 30, 60, 120, 180, or 240 minutes post-injection.

[5] = system: 3LL-R Lewis lung carcinoma cells; experiment: Experimental metastasis inducing capacity on TNF resistant 3LL-R Lewis lung carcinoma cells; assay type: in vivo, mouse (C57bl/6); conditions: for metastasis enhancing potential compared with wild type TNF: 3LL-R
Experimental: At this time, all mice were killed and the lung weight as well as the amount of cancer cell nodules in the lung was assessed.

[6] = 333 pg/ml, experiment 1, 24 hours
[7] = 333 pg/ml, experiment 2, 24 hours
[8] = 1000 pg/ml, experiment 1, 24 hours
[9] = 1000 pg/ml, experiment 2, 24 hours
[10] = 1666 pg/ml, experiment 1, 24 hours
[11] = 1666 pg/ml, experiment 2, 24 hours

## [Cl-].[Li+] [LiCl, reference compound]
[1]; 1 μg/ml of LiCl co-treatment
  potentiation of trypanocidal effect of TNF-α: 100 fold
[1]; T. brucei brucei, 5 h, data not shown
  mortality of trypanosomes: by itself had no effect on the survival of the trypanosomes
[1]
  effect on trypanocidal activity of TNF-α / tip peptide: synergistically potentiates the trypanocidal effect of mTNF-α

## CC(=O)N[C@H]1[C@H](O[C@H]2[C@H](O)[C@@H](NC(C)=O)C(O)O[C@@H]2CO)O[C@H](CO)[C@@H](O)[C@@H]1O (stereo partly shown) [N,N'-diacetylchitobiose, reference compound]
[1]
  effect on trypanocidal activity of TNF-α / tip peptide: potently inhibits the trypanocidal activity; also recorded: potent inhibition of the mTNF-α trypanocidal effect; also recorded: trypanocidal activity of the peptide can also be inhibited
L929 cells; L929 cells
  effect on mTNF-α tumoricidal (cytolytic) activity: not the cytolytic activity; also recorded: not affected

## Bio-GG-C - - - - APEGAE - - - - - C (Biotin-GGCAPEGAEC-NH2; cysteine pairing not given here) [mutpep 1]
[1]; T. brucei brucei
  trypanocidal activity: lost their trypanocidal activity

## Bio-GG-C-TAEGAE-C (Biotin-GGCTAEGAEC-NH2; cysteine pairing not given here) [mutpep 2]
[1]; T. brucei brucei
  trypanocidal activity: fully or even more active

## Bio-GG-C-TPAGAE-C (Biotin-GGCTPAGAEC-NH2; cysteine pairing not given here) [mutpep 3]
[1]; T. brucei brucei
  trypanocidal activity: lost their trypanocidal activity

## Bio-GG-C-TPEAAE-C (Biotin-GGCTPEAAEC-NH2; cysteine pairing not given here) [mutpep 4]
[1]; T. brucei brucei
  trypanocidal activity: fully or even more active

## Bio-GG-C-TPEGAA-C (Biotin-GGCTPEGAAC-NH2; cysteine pairing not given here) [mutpep 5]
[1]; T. brucei brucei
  trypanocidal activity: lost their trypanocidal activity

## Bio-GG-C-TPEGAE-C (Biotin-GGCTPEGAEC-NH2; cysteine pairing not given here) [subpep 1]
[1]; T. brucei brucei
  trypanocidal activity: full trypanocidal activity

## Bio-GG-CGPKDTPEGAELKPWYC (Biotin-GGCGPKDTPEGAELKPWYC-NH2; disulfide 3-19 (inferred)) [mTNFα-tip]
[1]; T. brucei brucei
  trypanocidal activity: shows a trypanocidal activity
[1]; in vitro trypanocidal assay, average specificity
  trypanocidal specific activity: 4×10^2 -4×10^3 U/mg of peptide
L929 cells; L929 cells, similar dose response curve, data not shown
  tumoricidal activity of tip peptide: exerts no tumoricidal activity

## Bio-GG-CGQRETPEGAEAKPWYC [hTNFα-tip]
[1]; T. brucei brucei
  trypanocidal activity: shows similar results

## Bio-GG-EGAELKPWY [subpep 2]
[1]; T. brucei brucei
  trypanocidal activity: strongly reduced trypanocidal activity

## GNA: lectin Galanthus nivalis agglutinin [reference compound]
[1]; mTNF-α 1.000 pg/ml
  % inhibition of trypanocidal activity: 5 ± 3%
[1]; mTNF-α 10.000 pg/ml
  % inhibition of trypanocidal activity: 5 ± 2%
[1]; mTNF-α 100 pg/ml
  % inhibition of trypanocidal activity: 0 ± 1%
[1]; mTNF-α 100.000 pg/ml
  % inhibition of trypanocidal activity: 3 ± 2%
[1]; mTNF-α 1.000.000 pg/ml
  % inhibition of trypanocidal activity: 2 ± 1%
[1]
  effect on trypanocidal activity of TNF-α / tip peptide: did not have any effect
L929 cells; L929 cells
  effect on mTNF-α tumoricidal (cytolytic) activity: none of these lectins had any effect

B1: P106A mTNF-α: Pro106 of mTNF-α is changed to an Ala residue (protein)
chain: LRSSSQNSSDKPVAHVVANHQVEEQLEWLSQRANALLANGMDLKDNQLVVPADGLYLVYSQVLFKGQGCPDYVLLTHTVSRFAISYQEKVNLLSAVKSPCPKDTAEGAELKPWYEPIYLGGVFQLEKGDQLSAEVNLPKYLDFAESGQVYFGVIAL
[2]; 333 pg/ml, experiment 1
  IL6 concentration: 720 pg/mL
[2]; 333 pg/ml, experiment 2
  IL6 concentration: 1300 pg/mL
[2]; 1000 pg/ml, experiment 1
  IL6 concentration: 560 pg/mL
[2]; 1000 pg/ml, experiment 2
  IL6 concentration: 750 pg/mL
[2]; 1666 pg/ml, experiment 1
  IL6 concentration: 800 pg/mL
[2]; 1666 pg/ml, experiment 2
  IL6 concentration: 1300 pg/mL
[3]; [6]
  IL8 concentration: 300 pg/mL
[3]; [7]
  IL8 concentration: 400 pg/mL
[3]; [8]
  IL8 concentration: 1100 pg/mL
[3]; [9]
  IL8 concentration: 1500 pg/mL
[3]; [10]
  IL8 concentration: 250 pg/mL
[3]; [11]
  IL8 concentration: 900 pg/mL
[3]; hMVECb, 24 hours
  fold less IL8 induced than wild type TNF-α: about 3 fold
[3]
  IL8 induction compared with wild type: induce consistently less human interleukin 8 (IL8)

B2: soluble p55 hTNF-α receptor: soluble p55 hTNF-α receptor protein (protein)
chain: DSVCPQGKYIHPQNNSICCTKCHKGTYLYNDCPGPGQDTDCRECESGSFTASENHLRHCLSCSKCRKEMGQVEISSCTVDRDTVCGCRKNQYRHYWSENLFQCFNCSLCLNGTVHLSCQEKQNTVCTCHAGFFLRENECVSCSNCKKSLECTKLCLPQIEN
[1]; mTNF-α 100 pg/ml
  Δ: % inhibition of trypanocidal activity by the addition of the p55 hTNFα receptor protein: 15 ± 5%
[1]; mTNF-α 1000 pg/ml
  Δ: % inhibition of trypanocidal activity by the addition of the p55 hTNFα receptor protein: 10 ± 4%
[1]; mTNF-α 10000 pg/ml
  Δ: % inhibition of trypanocidal activity by the addition of the p55 hTNFα receptor protein: 7 ± 5%
[1]
  effect on trypanocidal activity of TNF-α / tip peptide: hardly influenced
L929 cells; mTNF-α 100 pg/ml
  Δ: % inhibition of tumoricidal activity by the addition of the p55 hTNFα receptor protein: 100 ± 5%
L929 cells; mTNF-α 1000 pg/ml
  Δ: % inhibition of tumoricidal activity by the addition of the p55 hTNFα receptor protein: 100 ± 4%
L929 cells; mTNF-α 10000 pg/ml
  Δ: % inhibition of tumoricidal activity by the addition of the p55 hTNFα receptor protein: 5 ± 2%
L929 cells; L929 cells
  effect on mTNF-α tumoricidal (cytolytic) activity: potently inhibits the mTNF-α tumoricidal activity

B3: del mTNF-α: tip-deleted mTNF-α; the TPEGAE coding sequence is deleted from the mTNF gene (protein)
chain: LRSSSQNSSDKPVAHVVANHQVEEQLEWLSQRANALLANGMDLKDNQLVVPADGLYLVYSQVLFKGQGCPDYVLLTHTVSRFAISYQEKVNLLSAVKSPCPKDLKPWYEPIYLGGVFQLEKGDQLSAEVNLPKYLDFAESGQVYFGVIAL
[4]; 1 μg/mouse i.p.
  longer half life than wild type TNF-α: at least 2 fold
[4]; Experiment 1, 0.5 minutes, 1 μg/mouse i.p.
  concentration TNF-α: 1000 ng/mL
[4]; Experiment 1, 5 minutes, 1 μg/mouse i.p.
  concentration TNF-α: 990 ng/mL
[4]; Experiment 1, 10 minutes, 1 μg/mouse i.p.
  concentration TNF-α: 640 ng/mL
[4]; Experiment 1, 15 minutes, 1 μg/mouse i.p.
  concentration TNF-α: 550 ng/mL
[4]; Experiment 1, 30 minutes, 1 μg/mouse i.p.
  concentration TNF-α: 580 ng/mL
[4]; Experiment 1, 60 minutes, 1 μg/mouse i.p.
  concentration TNF-α: 450 ng/mL
[4]; Experiment 1, 120 minutes, 1 μg/mouse i.p.
  concentration TNF-α: 250 ng/mL
[4]; Experiment 1, 180 minutes, 1 μg/mouse i.p.
  concentration TNF-α: 100 ng/mL
[4]; Experiment 1, 240 minutes, 1 μg/mouse i.p.
  concentration TNF-α: 10 ng/mL
[4]; Experiment 2, 0.5 minutes, 1 μg/mouse i.p.
  concentration TNF-α: 1000 ng/mL
[4]; Experiment 2, 15 minutes, 1 μg/mouse i.p.
  concentration TNF-α: 600 ng/mL
[4]; Experiment 2, 30 minutes, 1 μg/mouse i.p.
  concentration TNF-α: 500 ng/mL
[4]; Experiment 2, 60 minutes, 1 μg/mouse i.p.
  concentration TNF-α: 500 ng/mL
[4]; Experiment 2, 120 minutes, 1 μg/mouse i.p.
  concentration TNF-α: 330 ng/mL
[4]; Experiment 2, 180 minutes, 1 μg/mouse i.p.
  concentration TNF-α: 240 ng/mL
[4]; Experiment 2, 240 minutes, 1 μg/mouse i.p.
  concentration TNF-α: 20 ng/mL
[4]; L929 cytotoxic assay and indirect ELISA
  in vivo half life compared with wild type: increased half life
[2]; 333 pg/ml, experiment 1
  IL6 concentration: 760 pg/mL
[2]; 333 pg/ml, experiment 2
  IL6 concentration: 850 pg/mL
[2]; 1000 pg/ml, experiment 1
  IL6 concentration: 1180 pg/mL
[2]; 1000 pg/ml, experiment 2
  IL6 concentration: 1600 pg/mL
[2]; 1666 pg/ml, experiment 1
  IL6 concentration: 1240 pg/mL
[2]; 1666 pg/ml, experiment 2
  IL6 concentration: 1900 pg/mL
[2]; hMVECb
  IL6 induction compared with wild type: higher induction of human interleukin-6
[5]; listed as TNF tip deletion mutant
  metastasis enhancing potential compared with wild type TNF: considerably lower than that of wild type TNF
[5]; listed as mTNFα mutein carrying a deletion of the region extending from amino acids 105 to
  metastasis enhancing potential compared with wild type TNF: considerably lower in vivo metastasis enhancing potential
[5]; 17 days
  general condition of mice: looked significantly better
[5]; 17 days, 5 μg/mouse i.p. 5 hours prior to 3LL-R cells
  mean lung weight: 566 ± 318
[3]; [6]
  IL8 concentration: 1800 pg/mL
[3]; [7]
  IL8 concentration: 2450 pg/mL
[3]; [8]
  IL8 concentration: 1300 pg/mL
[3]; [9]
  IL8 concentration: 2200 pg/mL
[3]; [10]
  IL8 concentration: 850 pg/mL
[3]; [11]
  IL8 concentration: 1250 pg/mL
[3]; listed as deletion mutant of mTNFα in the region extending from amino acids 105 to 110
  IL8 induction compared with wild type: induce consistently less human interleukin 8 (IL8)
[3]; listed as tip deletion mutant
  IL8 induction compared with wild type: about two times more powerful in inducing the inflammatory cytokine IL8
